The target of series [1] is T1, MobMN199 (MobM relaxase domain) (Streptococcus plasmid pMV158 (plasmid …, UniProt P13925 1-199)).
T1 sequence: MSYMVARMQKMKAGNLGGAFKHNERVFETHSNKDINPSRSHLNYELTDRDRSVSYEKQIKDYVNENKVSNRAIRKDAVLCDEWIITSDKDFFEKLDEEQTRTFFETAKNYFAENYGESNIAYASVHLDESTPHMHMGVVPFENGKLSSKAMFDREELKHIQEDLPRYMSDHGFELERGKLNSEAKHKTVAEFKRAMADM
Put plainly: competition.

Series [2] deals with T1, MobMN199 (MobM relaxase domain). The series can be described thus: EMSA.
Series [3] has the same target. The series can be described thus: competition. The source holds these as a separate data set.
Series [4] shares this target. The series can be described thus: competition. The source holds these as a separate data set.

The text below walks through data of PMC3105389.

Read-outs that look alike come from different tables or passages of the source.

On to GTATAGTGTG (ssDNA) [10-NIC 10-mer], for which, in series [1], the binding result is “no binding”.

A word on the Kd: it is a measure of binding affinity in units of concentration. Read a low Kd as a tighter complex. Regarding GCACACACTTTATGAATATAAAGTATAGTGTG (ssDNA) [IR3 32-mer], in series [2], the affinity, expressed as Kd, was 60 ± 7 nM. Consider ACTTTATGAATATAAAGTATAGTGTG (ssDNA) [IR1+8 26-mer], for which the binding result in series [3] is “binds”. The molecule GCACACACTTTATGAATATAAAGTATAGTGTGTTATACTTTA (ssDNA) [ORIT 42-mer] returned a Kd in series [2] of 58 ± 6 nM. Turning to GCACACACTTTATGA (ssDNA) [IR3-L 15-mer], the binding result in series [4] is given as “no binding”. As for GAATATAAAGT (ssDNA) [IR1-R 11-mer], in series [4], the binding result was “no binding”. In the case of ACTTTATGAATATAAAGT (ssDNA) [IR1 18-mer], in series [1], the binding result was “no binding”. For TAAAGTATAGTGTGTTATACTTTA (ssDNA) [IR2 24-mer], the binding result in series [4] is recorded as “no binding”.
